Assay results as given in US20060287510A1 (Genentech, published 2006).

Target: T1, recombinant human insulin-like growth factor-1 (rhIGF-1) (human, UniProt P05019 49-118)
T1 construct: Soluble protein used for crystallization, sedimentation equilibrium and NMR; It was uniformly 13C/15N labelled for the NMR complex with IGF-F1-1; also called human IGF-1; 13C/15N IGF-1
Experiment: NMR structure of the complex (figure legend)

T1 sequence (P05019 49-118): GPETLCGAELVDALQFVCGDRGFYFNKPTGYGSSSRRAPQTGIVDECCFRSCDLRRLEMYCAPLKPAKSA

B1: phage-derived IGF-1 antagonist peptide IGF-F1-1 (peptide)
peptide: RNCFESVAALRRCMYG
notes: Unlabelled peptide mixed in slight molar excess with 1.5 mM 13C/15N IGF-1 for NMR
B1: binds.
